Data on 42 variants can be found in the MegaScale stability set (Tsuboyama et al. 2023).

The chains are these.
B1: r16_88_TrROS_Hall (parent)
chain: EVIELKIKFKTPEQREKLKEIAKKLNAEVVEEKDGEVIIRFKTPEQAERALKEAEKLGAEVEL

In the series the parent is B1. Briefly: folding stability dG (cDNA display proteolysis); higher = more stable. Particulars: PBS, room temperature.
EVIELKIPFKTPEQREKLKEIAKKLNAEVVEEKDGEVIIRFKTPEQAERALKEAEKLGAEVEL [K8P]: the “folding stability dG” value was found to be 4.21 kcal/mol. The same measure for EVIELKIKFKTPEQREKLKEIAKKLNAEVVEEKYGEVIIRFKTPEQAERALKEAEKLGAEVEL [D34Y]: 4.29 kcal/mol; for EVIELKIKFKTPEQREKLKEIAKKLNAEVVEEKEGEVIIRFKTPEQAERALKEAEKLGAEVEL [D34E]: 4.44 kcal/mol.

As for EVIELKIKFKTPEQREKLKEIAKKLNAERVEEKDGEVIIRFKTPEQAERALKEAEKLGAEVEL [V29R], the “folding stability dG” value was 4.57 kcal/mol. In the case of EVNELKIKFKTPEQREKLKEIAKKLNAEVVEEKDGEVIIRFKTPEQAERALKEAEKLGAEVEL [I3N] it was 4.76 kcal/mol; in that of EVIELKIKFKTPEQREKLKEIAKKLNWEVVEEKDGEVIIRFKTPEQAERALKEAEKLGAEVEL [A27W], 4.42 kcal/mol; in that of EVIELKIKFKTPEQREKLKEIAKKLNAEVVEEKDGEVIIRFKTPECAERALKEAEKLGAEVEL [Q46C], 4.41 kcal/mol. Consider EVIEGKIKFKTPEQREKLKEIAKKLNAEVVEEKDGEVIIRFKTPEQAERALKEAEKLGAEVEL [L5G], for which the “folding stability dG” value stood at 4.02 kcal/mol. On to EVIEEKIKFKTPEQREKLKEIAKKLNAEVVEEKDGEVIIRFKTPEQAERALKEAEKLGAEVEL [L5E], for which the “folding stability dG” value came out at 3.72 kcal/mol. The same measure for EVIEVKIKFKTPEQREKLKEIAKKLNAEVVEEKDGEVIIRFKTPEQAERALKEAEKLGAEVEL [L5V]: 4.29 kcal/mol; for EVIELKIKFKTPEQREKLKEIAKKLNAEVVEEKDGEVIIRFKTPEQATRALKEAEKLGAEVEL [E48T]: 4.28 kcal/mol; for EVIELKIKFKTPEQREKLKEIAKKLNAEVVEEKDGEVIIRFKTPEQAMRALKEAEKLGAEVEL [E48M]: 4.46 kcal/mol.

Regarding EVIELKIKFKTPEQREKLKEIAKKLNAEVVEEKDGEVIIRFKTPEQAERALKEASKLGAEVEL [E55S], the “folding stability dG” value worked out at 4.51 kcal/mol.

For EVIELKIKFKKPEQREKLKEIAKKLNAEVVEEKDGEVIIRFKTPEQAERALKEAEKLGAEVEL [T11K], the “folding stability dG” value came to 4.23 kcal/mol. On to EVIELKIKFKTPEQREKLKEIAKKLNAEVVEEKDGEVIIRFKTPEQAERALKEAEKLGAEVKL [E62K], for which the “folding stability dG” value turned out to be 4.17 kcal/mol. For VVIELKIKFKTPEQREKLKEIAKKLNAEVVEEKDGEVIIRFKTPEQAERALKEAEKLGAEVEL [E1V], the “folding stability dG” value was found to be 4.06 kcal/mol. The same measure for EVIELKIKFKTPEQREKLKEIAKKLNAEVVEEKDGEVIIRFKTPEQAERALKEFEKLGAEVEL [A54F]: 4.35 kcal/mol; for EVIELKIKFKTPEQREKLKEIAKKLNAEVVEEKDGEVIIRFKTPEQAERALKEMEKLGAEVEL [A54M]: 4.44 kcal/mol; for EVIELKIKFKTPEQREKLKEIAKKLNAEVVEEKDGEVIIRFKTPEQAERALKEWEKLGAEVEL [A54W]: 4.08 kcal/mol.

Consider EVIGLKIKFKTPEQREKLKEIAKKLNAEVVEEKDGEVIIRFKTPEQAERALKEAEKLGAEVEL [E4G], for which the “folding stability dG” value was 4.3 kcal/mol. As for EVIELKIKFKTPEQREKLKELAKKLNAEVVEEKDGEVIIRFKTPEQAERALKEAEKLGAEVEL [I21L], the “folding stability dG” value worked out at 4.39 kcal/mol.

On to EVIELKIKFKTPEQREKLKEVAKKLNAEVVEEKDGEVIIRFKTPEQAERALKEAEKLGAEVEL [I21V], for which the “folding stability dG” value came out at 4.33 kcal/mol.

With EVIELKIKFLTPEQREKLKEIAKKLNAEVVEEKDGEVIIRFKTPEQAERALKEAEKLGAEVEL [K10L], the “folding stability dG” value is 4.29 kcal/mol. In the case of EVIELKIKFYTPEQREKLKEIAKKLNAEVVEEKDGEVIIRFKTPEQAERALKEAEKLGAEVEL [K10Y] it was 4.5 kcal/mol.

Regarding EVIELKIKFQTPEQREKLKEIAKKLNAEVVEEKDGEVIIRFKTPEQAERALKEAEKLGAEVEL [K10Q], the “folding stability dG” value came out at 4.34 kcal/mol. For EVIELKIKFKTPEQREKLKEIAKKLNAEVVEEKDGEVIIRFKTPEQAERELKEAEKLGAEVEL [A50E], the “folding stability dG” value amounted to 3.34 kcal/mol. In the case of EVIELKIKFKTPEQREKLKEIAKKLNAEVVEEKDGEVIIRFKTPEQAERKLKEAEKLGAEVEL [A50K], the “folding stability dG” value is 2.55 kcal/mol. In the case of EVIELKIKFKTPEQREKLKVIAKKLNAEVVEEKDGEVIIRFKTPEQAERALKEAEKLGAEVEL [E20V] it was 4.47 kcal/mol; in that of EVIELKIKFKTPEQREKLKAIAKKLNAEVVEEKDGEVIIRFKTPEQAERALKEAEKLGAEVEL [E20A], 4.37 kcal/mol. As for EVIELKIKFKTPEQREKLKGIAKKLNAEVVEEKDGEVIIRFKTPEQAERALKEAEKLGAEVEL [E20G], the “folding stability dG” value turned out to be 4.32 kcal/mol.

EVIELKIKFKTPEQREKLKEIAKKLNAEVVEELDGEVIIRFKTPEQAERALKEAEKLGAEVEL [K33L]: the “folding stability dG” value came out at 4.59 kcal/mol. EVIELKIKFKTPEQREKLKEIAKKLNAEVVEEKDGEVIIRFKTPEQAERALKEAEKLGAEVES [L63S]: the “folding stability dG” value worked out at 4.39 kcal/mol. On to EVIELKIKFKTPEQREKLKEIAKKLNAEVVEEKDGEVIIRFKTPEQAERALKEAEKLGAEVEK [L63K], for which the “folding stability dG” value is 4.56 kcal/mol. EVIELKIKFKTPEQREKLKEIAKKLNAEVVEEKDGPVIIRFKTPEQAERALKEAEKLGAEVEL [E36P]: the “folding stability dG” value was 4.07 kcal/mol. Regarding EVIELMIKFKTPEQREKLKEIAKKLNAEVVEEKDGEVIIRFKTPEQAERALKEAEKLGAEVEL [K6M], the “folding stability dG” value was 4.43 kcal/mol. Turning to EVIELKIKFKTPEQREKEKEIAKKLNAEVVEEKDGEVIIRFKTPEQAERALKEAEKLGAEVEL [L18E], the “folding stability dG” value was determined as 1.57 kcal/mol. EVIELKIKFKTPEQREKLKEIAKKLNAKVVEEKDGEVIIRFKTPEQAERALKEAEKLGAEVEL [E28K]: the “folding stability dG” value amounted to 4.17 kcal/mol. As to EVIELKIKFKTPEQREKLKEIAKKLNAIVVEEKDGEVIIRFKTPEQAERALKEAEKLGAEVEL [E28I], the “folding stability dG” value is 4.45 kcal/mol. As to EVIELKIKFKTPEQREKLKEIAKKLNAYVVEEKDGEVIIRFKTPEQAERALKEAEKLGAEVEL [E28Y], the “folding stability dG” value is 4.36 kcal/mol. As for EVIELKIKFKTPEQRGKLKEIAKKLNAEVVEEKDGEVIIRFKTPEQAERALKEAEKLGAEVEL [E16G], the “folding stability dG” value amounted to 4.52 kcal/mol. The same measure for EVIELKIKFKTPEQREKLKEIAKKLNAEVVEEKDGEVIIRFKTPEQAERALKEAEKLGAEIEL [V61I]: 4.29 kcal/mol; for EVIELKIKFKTPEQREKLKEIAKKLNAEVVEEKDGEVIIRFKTPEQAERALKEAEKLDAEVEL [G58D]: 4.42 kcal/mol.
